Test results from patent US20020091083.

Target: YB-1 (expressed from YB-1/RSV) (Homo sapiens) (UniProt P67809)
Test: cell_activity
Conditions: human glioblastoma cells

| Substance | activity (relative CAT activity) (no repression, empty vector pRc/RSV = 1.1) | activity (relative CAT activity) (repression, empty vector pRc/RSV = 1.0) |
| --- | --- | --- |
| COL1A2 promoter -161 to +57 CAT non-binding reporter | 1 | – |
| COL1A2 promoter -161 to +57 CAT binding reporter | – | 0.6 |
